Measurements: patent US20120022228A1, “PURIFICATION OF AMPHOTERIC PRODUCTS, OR OF PRODUCTS LIABLE TO BE CONVERTED INTO AMPHOTERIC PRODUCTS” (CENTRE NATIONAL DE LA RECHERCHE SCIENTIFIQUE, priority 2010, published 2012)
Peptide text beside a SMILES is read from it.

Columns and labels:
Type in all cases: physicochemical
[1] = Partition of dipeptides between organic and aqueous phase as a function of percentage of deprotonation of the exchanger (FIG. 4); settings: exchanger DEHPA deprotonated to 30%
Text: FIG. 4 is a graphic representing the solubility of dipeptides in either an organic or an aqueous phase in function of the percentage of deprotonation of an exchanger dissolved in […]. In abscissae, the percentage of deprotonation of the exchanger is represented; said abscissae are graduated from 0 to 30%. The ordinates represent a partition coefficient between the organic phase and the aqueous phase, said ordinates being graduated from 0 to 1.
The Influence of the percentage of deprotonated exchanger over the CPC purification of dipeptides GG, GY and LV is determined. […]

[2] = Partition coefficient of SF328 evaluated by TLC in different biphasic solvent systems
Description: Partition coefficient of SF328 was evaluated by TLC in different biphasic solvent systems. In the elution mode, it is required that the KD value of the compound of interest lies between 0.2 and 5 (preferentially about 1).

[3] = CPC run in elution mode, stability of SF328 in the solvent system; settings: MtBE/CH3CN/BuOH/Water 1% TFA (2:1:2:5, v/v), Example 54
Description: Only the system MtBE/CH3CN/BuOH/Water 1% TFA (2:1:2:5, v/v) was tested. The experimental conditions were: • Rotation speed: 1300 rpm. • Sample injected: 100 mg. • Elution mode: ascending. • Flow rate: 8 ml/min.
This system causes the degradation of SF328.

With `CC(C)C[C@H](N)C(=O)N[C@H](C(=O)O)C(C)C` [LV, LeucylValine] (H-Leu-Val-OH) the “peptide extraction (partition organic/aqueous phase)” value [1] was “improvement”.
For “H-Asp-Glu-Asn-Pro-Val-Val-His-Phe-Phe-Lys-Asn-Ile-Val-Thr-Pro-Arg-Thr-OH (H-DENPVVHFFKNIVTPRT-OH) [SF328]”, the “Evaluation KD” value ([2]; BuOH/Acetic acid/Water (4:1:5, v/v)) was “average”, the “Evaluation KD” value ([2]; BuOH/Acetic acid/Water (5:1:4, v/v)) was “poor” and the “Evaluation KD” value ([2]; MtBE/CH3CN/BuOH/Water 1% TFA (2:1:2:5, v/v)) was “good”. The “Evaluation KD” value ([2]; MtBE/CH3CN/Water (2:2:3, v/v)) was “poor”, the “Evaluation KD” value ([2]; MtBE/CH3CN/Water (3:2:5, v/v)) was “average” and the “Stability in the solvent system” value [3] was “degradation”.
